According to US12404318B2, “Combination HBV therapy” (priority 2018, dated 2025):

Tested on: HBV (rAAV8-1.3HBV strain ayw, D type)
Assay: Combination therapy study in AAV-HBV mice (Example 1): serum HBsAg and HBV DNA
Assay type: in vivo, C57BL/6 mice
Experimental: The mice (C57BL/6 strain) were inoculated with the following amount of rAAV8-1.3HBV strain ayw, D type: 1.0×10^11 viral genomes per mouse in 200 μl volume via tail veins injection. Four weeks after viral inoculation, treatment with test compounds was initiated.
Entecavir was administered orally once per day.

## C=C1[C@H](CO)[C@@H](O)C[C@@H]1n1cnc2c(=O)[nH]c(N)nc21 [ETV, entecavir, reference compound]
Treatment 13: ETV 0.001 mg/kg, day 0 post-dose
  HBsAg levels from mouse serum (average log HBsAg content): 4.54 log IU/ml
Treatment 13: ETV 0.001 mg/kg, day 3 post-dose
  HBsAg levels from mouse serum (average log HBsAg content): 4.54 log IU/ml
Treatment 13: ETV 0.001 mg/kg, day 7 post-dose
  HBsAg levels from mouse serum (average log HBsAg content): 4.39 log IU/ml
Treatment 13: ETV 0.001 mg/kg, day 10 post-dose
  HBsAg levels from mouse serum (average log HBsAg content): 4.29 log IU/ml
Treatment 13: ETV 0.001 mg/kg, day 14 post-dose
  HBsAg levels from mouse serum (average log HBsAg content): 4.28 log IU/ml
Treatment 13: ETV 0.001 mg/kg, day 17 post-dose
  HBsAg levels from mouse serum (average log HBsAg content): 4.24 log IU/ml
Treatment 13: ETV 0.001 mg/kg, day 21 post-dose
  HBsAg levels from mouse serum (average log HBsAg content): 4.13 log IU/ml
Treatment 13: ETV 0.001 mg/kg, day 24 post-dose
  HBsAg levels from mouse serum (average log HBsAg content): 4.21 log IU/ml
Treatment 13: ETV 0.001 mg/kg, day 28 post-dose
  HBsAg levels from mouse serum (average log HBsAg content): 3.98 log IU/ml
Treatment 13: ETV 0.001 mg/kg, day 31 post-dose
  HBsAg levels from mouse serum (average log HBsAg content): 4.02 log IU/ml
Treatment 13: ETV 0.001 mg/kg, day 35 post-dose
  HBsAg levels from mouse serum (average log HBsAg content): 3.88 log IU/ml
Treatment 13: ETV 0.001 mg/kg, day 38 post-dose
  HBsAg levels from mouse serum (average log HBsAg content): 3.92 log IU/ml
Treatment 13: ETV 0.001 mg/kg, day 42 post-dose
  HBsAg levels from mouse serum (average log HBsAg content): 3.84 log IU/ml

## HBV02: chemically synthesized double-stranded oligonucleotide (siRNA) linked to a ligand with three GalNAc residues; sense SEQ ID NO:7, antisense SEQ ID NO:8 (sense GUGUGCACUUCGCUUCACA; antisense UGUGAAGCGAAGUGCACACUU; triantennary GalNAc ligand attached, chemically modified, pattern not given here)
AAV/HBV-infected C57BL/6 mice, HBV02 3 mg/kg, HBC34 antibody (HBC34-v7-mu-IgG2a) 15 mg/kg, alone or combined, FIGS. 2A, 2B
  Reduction of serum HBV DNA (viral load) relative to the saline control: ~0.5 log10
AAV/HBV-infected C57BL/6 mice, HBV02 3 mg/kg, HBC34 antibody (HBC34-v7-mu-IgG2a) 15 mg/kg, alone or combined, FIGS. 3A, 3B
  Reduction of serum HBsAg relative to the saline control: 1 log10
Treatment 1: HBV02 3 mg/kg, day 0 post-dose
  HBsAg levels from mouse serum (average log HBsAg content): 4.55 log IU/ml
Treatment 1: HBV02 3 mg/kg, day 3 post-dose
  HBsAg levels from mouse serum (average log HBsAg content): 3.99 log IU/ml
Treatment 1: HBV02 3 mg/kg, day 7 post-dose
  HBsAg levels from mouse serum (average log HBsAg content): 3.67 log IU/ml
Treatment 1: HBV02 3 mg/kg, day 10 post-dose
  HBsAg levels from mouse serum (average log HBsAg content): 3.59 log IU/ml
Treatment 1: HBV02 3 mg/kg, day 14 post-dose
  HBsAg levels from mouse serum (average log HBsAg content): 3.71 log IU/ml
Treatment 1: HBV02 3 mg/kg, day 17 post-dose
  HBsAg levels from mouse serum (average log HBsAg content): 3.69 log IU/ml
Treatment 1: HBV02 3 mg/kg, day 21 post-dose
  HBsAg levels from mouse serum (average log HBsAg content): 3.60 log IU/ml
Treatment 1: HBV02 3 mg/kg, day 24 post-dose
  HBsAg levels from mouse serum (average log HBsAg content): 3.57 log IU/ml
Treatment 1: HBV02 3 mg/kg, day 28 post-dose
  HBsAg levels from mouse serum (average log HBsAg content): 3.57 log IU/ml
Treatment 1: HBV02 3 mg/kg, day 31 post-dose
  HBsAg levels from mouse serum (average log HBsAg content): 3.81 log IU/ml
Treatment 1: HBV02 3 mg/kg, day 35 post-dose
  HBsAg levels from mouse serum (average log HBsAg content): 3.72 log IU/ml
Treatment 1: HBV02 3 mg/kg, day 38 post-dose
  HBsAg levels from mouse serum (average log HBsAg content): 3.72 log IU/ml
Treatment 1: HBV02 3 mg/kg, day 42 post-dose
  HBsAg levels from mouse serum (average log HBsAg content): 3.55 log IU/ml

B1: HBC34v7 (antibody, V domains shown)
VH: ELQLVESGGGWVQPGGSQRLSCAASGRIFRSFYMSWVRQAPGKGLEWVATINQDGSEKLYVDSVKGRFTISRDNAKNSLFLQMNNLRVEDTAVYYCAAWSGNSGGMDVWGQGTTVSVSS
VL: SYELTQPPSVSVSPGQTVSIPCSGDKLGNKNVCWFQHKPGQSPVLVIYEVKYRPSGIPERFSGSNSGNTATLTISGTQAMDEAAYFCQTFDSTTVVFGGGTRLTVL
modifications: Synthetic sequence HBC34 VH; Synthetic sequence HBC34v7 VL
Treatment 2: HBC34v7 15 mg/kg, day 0 post-dose
  HBsAg levels from mouse serum (average log HBsAg content): 4.64 log IU/ml
Treatment 2: HBC34v7 15 mg/kg, day 3 post-dose
  HBsAg levels from mouse serum (average log HBsAg content): 4.58 log IU/ml
Treatment 2: HBC34v7 15 mg/kg, day 7 post-dose
  HBsAg levels from mouse serum (average log HBsAg content): 4.46 log IU/ml
Treatment 2: HBC34v7 15 mg/kg, day 10 post-dose
  HBsAg levels from mouse serum (average log HBsAg content): 4.42 log IU/ml
Treatment 2: HBC34v7 15 mg/kg, day 14 post-dose
  HBsAg levels from mouse serum (average log HBsAg content): 4.34 log IU/ml
Treatment 2: HBC34v7 15 mg/kg, day 17 post-dose
  HBsAg levels from mouse serum (average log HBsAg content): 3.87 log IU/ml
Treatment 2: HBC34v7 15 mg/kg, day 21 post-dose
  HBsAg levels from mouse serum (average log HBsAg content): 4.09 log IU/ml
Treatment 2: HBC34v7 15 mg/kg, day 24 post-dose
  HBsAg levels from mouse serum (average log HBsAg content): 3.65 log IU/ml
Treatment 2: HBC34v7 15 mg/kg, day 28 post-dose
  HBsAg levels from mouse serum (average log HBsAg content): 4.15 log IU/ml
Treatment 2: HBC34v7 15 mg/kg, day 31 post-dose
  HBsAg levels from mouse serum (average log HBsAg content): 4.29 log IU/ml
Treatment 2: HBC34v7 15 mg/kg, day 35 post-dose
  HBsAg levels from mouse serum (average log HBsAg content): 4.25 log IU/ml
Treatment 2: HBC34v7 15 mg/kg, day 38 post-dose
  HBsAg levels from mouse serum (average log HBsAg content): 4.26 log IU/ml
Treatment 2: HBC34v7 15 mg/kg, day 42 post-dose
  HBsAg levels from mouse serum (average log HBsAg content): 4.28 log IU/ml
Treatment 3: HBC34v7 5 mg/kg, day 0 post-dose
  HBsAg levels from mouse serum (average log HBsAg content): 4.49 log IU/ml
Treatment 3: HBC34v7 5 mg/kg, day 3 post-dose
  HBsAg levels from mouse serum (average log HBsAg content): 4.37 log IU/ml
Treatment 3: HBC34v7 5 mg/kg, day 7 post-dose
  HBsAg levels from mouse serum (average log HBsAg content): 4.44 log IU/ml
Treatment 3: HBC34v7 5 mg/kg, day 10 post-dose
  HBsAg levels from mouse serum (average log HBsAg content): 4.35 log IU/ml
Treatment 3: HBC34v7 5 mg/kg, day 14 post-dose
  HBsAg levels from mouse serum (average log HBsAg content): 4.30 log IU/ml
Treatment 3: HBC34v7 5 mg/kg, day 17 post-dose
  HBsAg levels from mouse serum (average log HBsAg content): 4.28 log IU/ml
Treatment 3: HBC34v7 5 mg/kg, day 21 post-dose
  HBsAg levels from mouse serum (average log HBsAg content): 4.32 log IU/ml
Treatment 3: HBC34v7 5 mg/kg, day 24 post-dose
  HBsAg levels from mouse serum (average log HBsAg content): 4.26 log IU/ml
Treatment 3: HBC34v7 5 mg/kg, day 28 post-dose
  HBsAg levels from mouse serum (average log HBsAg content): 4.23 log IU/ml
Treatment 3: HBC34v7 5 mg/kg, day 31 post-dose
  HBsAg levels from mouse serum (average log HBsAg content): 3.99 log IU/ml
Treatment 3: HBC34v7 5 mg/kg, day 35 post-dose
  HBsAg levels from mouse serum (average log HBsAg content): 3.99 log IU/ml
Treatment 3: HBC34v7 5 mg/kg, day 38 post-dose
  HBsAg levels from mouse serum (average log HBsAg content): 4.08 log IU/ml
Treatment 3: HBC34v7 5 mg/kg, day 42 post-dose
  HBsAg levels from mouse serum (average log HBsAg content): 4.05 log IU/ml
Treatment 4: HBC34v7 1 mg/kg, day 0 post-dose
  HBsAg levels from mouse serum (average log HBsAg content): 4.50 log IU/ml
Treatment 4: HBC34v7 1 mg/kg, day 3 post-dose
  HBsAg levels from mouse serum (average log HBsAg content): 4.46 log IU/ml
Treatment 4: HBC34v7 1 mg/kg, day 7 post-dose
  HBsAg levels from mouse serum (average log HBsAg content): 4.42 log IU/ml
Treatment 4: HBC34v7 1 mg/kg, day 10 post-dose
  HBsAg levels from mouse serum (average log HBsAg content): 4.37 log IU/ml
Treatment 4: HBC34v7 1 mg/kg, day 14 post-dose
  HBsAg levels from mouse serum (average log HBsAg content): 4.40 log IU/ml
Treatment 4: HBC34v7 1 mg/kg, day 17 post-dose
  HBsAg levels from mouse serum (average log HBsAg content): 4.31 log IU/ml
Treatment 4: HBC34v7 1 mg/kg, day 21 post-dose
  HBsAg levels from mouse serum (average log HBsAg content): 4.31 log IU/ml
Treatment 4: HBC34v7 1 mg/kg, day 24 post-dose
  HBsAg levels from mouse serum (average log HBsAg content): 4.38 log IU/ml
Treatment 4: HBC34v7 1 mg/kg, day 28 post-dose
  HBsAg levels from mouse serum (average log HBsAg content): 4.29 log IU/ml
Treatment 4: HBC34v7 1 mg/kg, day 31 post-dose
  HBsAg levels from mouse serum (average log HBsAg content): 4.15 log IU/ml
Treatment 4: HBC34v7 1 mg/kg, day 35 post-dose
  HBsAg levels from mouse serum (average log HBsAg content): 4.16 log IU/ml
Treatment 4: HBC34v7 1 mg/kg, day 38 post-dose
  HBsAg levels from mouse serum (average log HBsAg content): 4.09 log IU/ml
Treatment 4: HBC34v7 1 mg/kg, day 42 post-dose
  HBsAg levels from mouse serum (average log HBsAg content): 4.08 log IU/ml
Treatment 5: HBC34v7 0.1 mg/kg, day 0 post-dose
  HBsAg levels from mouse serum (average log HBsAg content): 4.51 log IU/ml
Treatment 5: HBC34v7 0.1 mg/kg, day 3 post-dose
  HBsAg levels from mouse serum (average log HBsAg content): 4.36 log IU/ml
Treatment 5: HBC34v7 0.1 mg/kg, day 7 post-dose
  HBsAg levels from mouse serum (average log HBsAg content): 4.31 log IU/ml
Treatment 5: HBC34v7 0.1 mg/kg, day 10 post-dose
  HBsAg levels from mouse serum (average log HBsAg content): 4.17 log IU/ml
Treatment 5: HBC34v7 0.1 mg/kg, day 14 post-dose
  HBsAg levels from mouse serum (average log HBsAg content): 4.26 log IU/ml
Treatment 5: HBC34v7 0.1 mg/kg, day 17 post-dose
  HBsAg levels from mouse serum (average log HBsAg content): 4.17 log IU/ml
Treatment 5: HBC34v7 0.1 mg/kg, day 21 post-dose
  HBsAg levels from mouse serum (average log HBsAg content): 4.23 log IU/ml
Treatment 5: HBC34v7 0.1 mg/kg, day 24 post-dose
  HBsAg levels from mouse serum (average log HBsAg content): 4.25 log IU/ml
Treatment 5: HBC34v7 0.1 mg/kg, day 28 post-dose
  HBsAg levels from mouse serum (average log HBsAg content): 4.20 log IU/ml
Treatment 5: HBC34v7 0.1 mg/kg, day 31 post-dose
  HBsAg levels from mouse serum (average log HBsAg content): 4.26 log IU/ml
Treatment 5: HBC34v7 0.1 mg/kg, day 35 post-dose
  HBsAg levels from mouse serum (average log HBsAg content): 4.38 log IU/ml
Treatment 5: HBC34v7 0.1 mg/kg, day 38 post-dose
  HBsAg levels from mouse serum (average log HBsAg content): 4.38 log IU/ml
Treatment 5: HBC34v7 0.1 mg/kg, day 42 post-dose
  HBsAg levels from mouse serum (average log HBsAg content): 4.30 log IU/ml
